Experimental data taken from patent US20240262917A1, “ANTIBODIES AGAINST ALK AND METHODS OF USE THEREOF” (Dana-Farber Cancer Institute, Inc., priority 2021, published 2024).
One block for each molecule: values may come before it.

Assays:
MMP-9 = MMP-9 (Homo sapiens, UniProt P14780); conditions: cited from earlier work
ALK [1] = test: Western blot analysis of ALK in cell lysates and conditioned media; type: binding, human
Excerpt: (§1) (A) Western blot analysis of ALK in Kelly and SHEP neuroblastoma cells overexpressing GFP and mutated ALK using the mAb-7 and 8G7 anti-ALK antibodies. The mAb-7 antibody was developed at the Vigny laboratory (INSERM, Unité 706/Université Pierre et Marie Curie, Paris F-75005, France) (Moog-Lutz et al, 2005; PMID: 15886198) and obtained through a Materials Transfer Agreement. (B) Western blot analysis of ALK expression in various non-neuroblastoma cell lines: H1373 (human […]), HeLa (cervical cancer), NIH-3T3 (transformed mouse fibroblast cells) using 8G7 and C26G7 (rabbit monoclonal C-terminal anti-ALK antibody; Cell Signaling Technology; Cat #3333; RRID:AB_836862) anti-ALK antibodies.
(§2) The three HPLC-purified monoclonal antibodies (5H3, 7F7 and 8G7) all of the IgG1 subtype, were tested for their ability to bind to ALK in neuroblastoma cells expressing ALK. Both cell lysates and supernatants from cells grown with and without serum (to increase the expression of ALK) were tested by western blotting. […] (A) Western blot analysis of the indicated hybridoma clones in neuroblastoma cell lines expressing WT (NGP) and mutated (SHSY5Y, Kelly) ALK. NIH3T3 cells were used as controls. (B) Western blot analysis of conditioned media from NGP neuroblastoma and 293T cells engineered to express the WT ALK receptor, with the three ALK mAbs showing binding with the shed ALK extracellular domain. […]
Cell lysates were prepared in NP-40 buffer (Invitrogen) containing complete protease inhibitor (Roche), phosphatase inhibitor (Roche) and phenylmethylsulfonyl fluoride (PMSF). Lysates were incubated on ice for 20 min and centrifuged at 16,000 g for 15 min at 4° C. Protein concentrations of the supernatants were determined with the DC protein assay kit (Bio-Rad). Protein samples were denatured using NuPAGE LDS sample buffer (Invitrogen) and NuPAGE sample reducing agent (Invitrogen). Proteins were then separated on precast 4-12% Bis-Tris gels (Invitrogen) and transferred to nitrocellulose membranes (Bio-Rad). […]

ALK [2] = target: T1, ALK (Homo sapiens, UniProt Q9UM73); test: Screening and subcloning of hybridomas (ELISA, FCM, functional assays); type: binding; design: The human ALK extracellular domain (19-682 aa) fused to the mouse Fc gene; made in house; host or cells: 293T cells; conditions: after subcloning by limiting dilution
Procedure: HAT-selected fused cells were distributed in 96 well plates and the hybridoma supernatants were subjected to several rounds of screening. Initial screening was performed using ELISA against human Fc to test antigen binding with the ALK ECD-human Fc fusion protein. […] These were rescreened by FACS against Ba/F3 and neuroblastoma (NB) cells expressing ALK. From this screen, 22 positive hybridoma supernatants were tested in an antigen-binding capture ELISA assay and 11 were subsequently selected for further analysis. (A) Binding of hybridoma supernatants using an antigen-binding capture assay. The plate was coated with goat-anti-mouse IgG Fc, incubated with hybridoma supernatants, followed by ALK-HRP and visualized using an HRP substrate. (B) Binding of selected hybridoma supernatants to a human Fc antibody using ELISA screening. Plates were coated with the ALK ECD-human Fc fusion protein (ALK-hFc) together with an irrelevant hFc protein and visualized using an anti-mouse kappa light chain antibody. Only the supernatants with the highest binding are shown.
Supernatants from individual clones were then screened by ELISA and FACS analysis for ALK binding. Shown here is the viability of NGP neuroblastoma cells (expressing ALK) in the presence of anti-mouse IgG antibody in hybridoma clone supernatants. […]
Target sequence in this assay (Q9UM73 19-682): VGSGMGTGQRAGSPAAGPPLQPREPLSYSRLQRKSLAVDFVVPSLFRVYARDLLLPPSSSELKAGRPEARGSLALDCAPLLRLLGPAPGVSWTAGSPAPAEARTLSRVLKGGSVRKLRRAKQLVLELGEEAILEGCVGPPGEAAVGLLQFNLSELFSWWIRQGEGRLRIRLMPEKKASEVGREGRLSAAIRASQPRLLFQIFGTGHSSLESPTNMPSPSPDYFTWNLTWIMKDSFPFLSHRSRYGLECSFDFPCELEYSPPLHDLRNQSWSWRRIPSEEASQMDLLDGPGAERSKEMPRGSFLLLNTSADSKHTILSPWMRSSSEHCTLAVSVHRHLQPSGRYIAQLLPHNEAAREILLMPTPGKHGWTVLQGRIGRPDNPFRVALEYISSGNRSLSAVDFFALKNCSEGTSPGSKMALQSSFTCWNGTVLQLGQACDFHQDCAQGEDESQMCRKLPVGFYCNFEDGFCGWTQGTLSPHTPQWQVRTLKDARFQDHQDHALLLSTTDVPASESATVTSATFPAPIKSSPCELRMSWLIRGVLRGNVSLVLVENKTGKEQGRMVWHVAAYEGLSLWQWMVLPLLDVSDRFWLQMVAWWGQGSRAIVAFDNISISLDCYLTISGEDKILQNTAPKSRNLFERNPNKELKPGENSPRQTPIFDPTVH

full-length ALK receptor = target: T2, full-length ALK receptor (Homo sapiens, UniProt Q9UM73); test: Immunoprecipitation of ALK from neuroblastoma cell lysates; type: binding; conditions: immunoblotting with commercial anti-ALK C-terminal antibody
T2 construct: endogenous in cells
Excerpt: Cell lysates from the indicated neuroblastoma cell lines were subjected to immunoprecipitation (IP) using 8G7 and subsequently to immunoblotting analysis using the commercial anti-ALK C-terminal antibody.

ALK [3] = target: T1, ALK; test: Western blot analysis of ALK in cell lysates and conditioned media; type: binding; design: endogenous in cells; host or cells: human neuroblastoma lines (NGP, SH-SY5Y, Kelly and others)
Excerpt: as §1, §2
Cell lysates were prepared in NP-40 buffer (Invitrogen) containing complete protease inhibitor (Roche), phosphatase inhibitor (Roche) and phenylmethylsulfonyl fluoride (PMSF). Lysates were incubated on ice for 20 min and centrifuged at 16,000 g for 15 min at 4° C. Protein concentrations of the supernatants were determined with the DC protein assay kit (Bio-Rad). Protein samples were denatured using NuPAGE LDS sample buffer (Invitrogen) and NuPAGE sample reducing agent (Invitrogen). Proteins were then separated on precast 4-12% Bis-Tris gels (Invitrogen) and transferred to nitrocellulose membranes (Bio-Rad). After blocking in blocking buffer (5% dry milk in TBS with 0.2% Tween-20), membranes were incubated with the primary antibody overnight at 4 °C, washed three times with TBST buffer, chemiluminescent detection performed with the appropriate secondary antibodies and developed using Genemate Blue ultra-autoradiography film (VWR).

[4] = target: T3, ALK extracellular fragment (Homo sapiens, UniProt Q9UM73); test: Sandwich ELISA of shed ALK ECD in patient sera; type: binding; conditions: sera of patients with ALK-expressing neuroblastoma
T3 construct: conditioned media containing the shed ALK (ALK 1-654) ECD fragment; from tissue; host or cells: serum of neuroblastoma patients
Excerpt: Detection of the purified ALK-ECD protein using 8G7 (detection) and 7F7 (capture) anti-ALK antibodies by sandwich ELISA. (A) Standard curve showing the gradual increase in signal with increasing concentrations of the ALK-ECD protein in the media of NGP cells that express cleaved ALK. Quantification is shown below. (B) ELISA of the shed ALK ECD protein in sera from patients with neuroblastoma. Ample diluent buffer was used to dilute the serum samples, Media represents Dulbecco's Modified Eagle media in which human embryonic kidney 293T cells were grown, 293T media, conditioned media from 293T cells; ALK ECD 293T media, media collected from 293T cells in which the ALK-ECD-mFc protein was overexpressed.
We developed a sandwich ELISA technique where two ALK antibodies (for example, 5H3 or 7F7) can be used to capture the ALK extracellular fragment (antigen), and another antibody, such as the 8G7 antibody, can be used to detect the captured ALK extracellular fragment-5H3 or 7F7 complex. The different epitope binding sites of these antibodies on the ALK extracellular fragment protein allow for the development of the sandwich ELISA technique for the detection of the cleaved or shed ALK extracellular fragment in patient serum samples (FIG. 18). […]

Sequence of MMP-9 (P14780 94-707): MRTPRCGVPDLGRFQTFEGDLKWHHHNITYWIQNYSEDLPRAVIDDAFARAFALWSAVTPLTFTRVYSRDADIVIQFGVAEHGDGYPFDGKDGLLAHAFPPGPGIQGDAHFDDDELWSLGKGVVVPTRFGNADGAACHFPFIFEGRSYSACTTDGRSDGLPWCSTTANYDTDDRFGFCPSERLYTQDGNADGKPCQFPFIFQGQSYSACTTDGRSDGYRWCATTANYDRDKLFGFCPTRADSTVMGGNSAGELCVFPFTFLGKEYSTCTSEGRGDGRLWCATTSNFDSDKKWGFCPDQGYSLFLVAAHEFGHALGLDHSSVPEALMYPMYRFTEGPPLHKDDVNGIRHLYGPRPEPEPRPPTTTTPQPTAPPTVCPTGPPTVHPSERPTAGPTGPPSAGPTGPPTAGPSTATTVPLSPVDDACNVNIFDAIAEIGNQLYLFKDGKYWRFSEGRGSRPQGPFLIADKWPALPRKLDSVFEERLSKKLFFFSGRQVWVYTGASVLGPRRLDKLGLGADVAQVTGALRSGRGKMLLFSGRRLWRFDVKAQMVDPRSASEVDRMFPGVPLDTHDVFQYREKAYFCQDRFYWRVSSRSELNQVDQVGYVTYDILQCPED
T3 sequence (Q9UM73 19-654): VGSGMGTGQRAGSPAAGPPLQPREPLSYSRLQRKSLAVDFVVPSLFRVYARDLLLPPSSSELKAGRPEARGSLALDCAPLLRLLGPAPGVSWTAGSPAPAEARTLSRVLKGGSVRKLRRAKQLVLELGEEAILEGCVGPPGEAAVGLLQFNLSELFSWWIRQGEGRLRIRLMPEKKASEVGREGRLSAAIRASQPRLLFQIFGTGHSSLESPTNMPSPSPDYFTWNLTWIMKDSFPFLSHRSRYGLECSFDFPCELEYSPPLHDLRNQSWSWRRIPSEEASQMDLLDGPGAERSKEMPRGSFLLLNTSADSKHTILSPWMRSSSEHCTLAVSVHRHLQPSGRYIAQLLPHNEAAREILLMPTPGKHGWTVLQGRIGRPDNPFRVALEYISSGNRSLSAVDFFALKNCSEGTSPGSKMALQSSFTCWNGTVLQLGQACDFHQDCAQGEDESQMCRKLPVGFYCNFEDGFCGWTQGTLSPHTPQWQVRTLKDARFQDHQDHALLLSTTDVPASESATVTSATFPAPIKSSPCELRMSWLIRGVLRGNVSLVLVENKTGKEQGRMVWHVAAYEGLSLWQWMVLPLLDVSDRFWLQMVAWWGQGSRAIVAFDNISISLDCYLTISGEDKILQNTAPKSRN
T2 sequence (Q9UM73 19-1620): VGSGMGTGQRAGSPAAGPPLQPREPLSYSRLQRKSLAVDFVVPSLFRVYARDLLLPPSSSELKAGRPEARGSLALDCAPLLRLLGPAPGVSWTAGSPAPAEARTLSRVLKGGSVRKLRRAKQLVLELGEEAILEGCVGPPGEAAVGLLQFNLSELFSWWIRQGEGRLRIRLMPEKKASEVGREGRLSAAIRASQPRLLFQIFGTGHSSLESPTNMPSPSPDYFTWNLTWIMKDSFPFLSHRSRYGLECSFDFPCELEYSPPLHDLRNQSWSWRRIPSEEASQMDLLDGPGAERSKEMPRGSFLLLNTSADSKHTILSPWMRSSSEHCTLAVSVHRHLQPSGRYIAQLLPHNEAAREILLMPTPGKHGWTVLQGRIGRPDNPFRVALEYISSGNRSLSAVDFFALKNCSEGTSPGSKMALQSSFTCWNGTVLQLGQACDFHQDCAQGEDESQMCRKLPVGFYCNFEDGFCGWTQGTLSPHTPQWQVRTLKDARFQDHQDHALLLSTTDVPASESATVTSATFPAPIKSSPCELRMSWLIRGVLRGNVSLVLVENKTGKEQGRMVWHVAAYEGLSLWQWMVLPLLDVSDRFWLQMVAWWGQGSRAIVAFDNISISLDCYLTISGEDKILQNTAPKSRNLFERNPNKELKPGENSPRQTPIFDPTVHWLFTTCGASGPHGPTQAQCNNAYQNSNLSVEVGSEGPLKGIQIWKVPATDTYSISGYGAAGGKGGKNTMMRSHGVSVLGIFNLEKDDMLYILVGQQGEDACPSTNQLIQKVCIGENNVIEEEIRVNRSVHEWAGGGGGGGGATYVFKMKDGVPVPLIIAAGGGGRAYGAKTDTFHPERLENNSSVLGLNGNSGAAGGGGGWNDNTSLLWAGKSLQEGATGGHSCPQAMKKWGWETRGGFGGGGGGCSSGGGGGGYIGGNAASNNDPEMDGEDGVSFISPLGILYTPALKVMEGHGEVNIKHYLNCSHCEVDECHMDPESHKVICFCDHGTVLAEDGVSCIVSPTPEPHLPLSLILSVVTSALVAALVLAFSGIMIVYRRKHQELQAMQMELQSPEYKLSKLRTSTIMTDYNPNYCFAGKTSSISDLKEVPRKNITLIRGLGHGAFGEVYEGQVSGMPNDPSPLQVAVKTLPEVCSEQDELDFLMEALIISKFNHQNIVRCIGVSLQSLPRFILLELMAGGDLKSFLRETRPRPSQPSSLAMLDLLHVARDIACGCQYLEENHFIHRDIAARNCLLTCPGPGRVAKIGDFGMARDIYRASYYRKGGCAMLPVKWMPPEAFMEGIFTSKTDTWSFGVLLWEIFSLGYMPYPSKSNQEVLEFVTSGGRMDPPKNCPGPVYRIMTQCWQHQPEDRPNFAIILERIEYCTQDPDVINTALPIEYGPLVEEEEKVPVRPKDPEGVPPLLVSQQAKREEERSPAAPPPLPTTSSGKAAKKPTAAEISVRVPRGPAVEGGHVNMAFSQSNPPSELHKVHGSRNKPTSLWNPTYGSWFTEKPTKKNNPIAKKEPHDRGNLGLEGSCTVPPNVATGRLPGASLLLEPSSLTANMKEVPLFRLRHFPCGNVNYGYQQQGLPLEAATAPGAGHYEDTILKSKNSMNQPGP

B1: andecaliximab: selective MMP-9 antibody (Gilead) (antibody, chains of the INN, looked up, V domains shown)
VH: QVQLQESGPGLVKPSETLSLTCTVSGFSLLSYGVHWVRQPPGKGLEWLGVIWTGGTTNYNSALMSRFTISKDDSKNTVYLKMNSLKTEDTAIYYCARYYYGMDYWGQGTLVTVSS
VL: DIQMTQSPSSLSASVGDRVTITCKASQDVRNTVAWYQQKPGKAPKLLIYSSSYRNTGVPDRFSGSGSGTDFTLTISSLQAEDVAVYYCQQHYITPYTFGGGTKVEIK
- clinical activity (MMP-9; combined with standard chemotherapy, gastric and gastroesophageal junction adenocarcinoma): showed activity when combined with standard chemotherapy
- target engagement and dose-limiting toxicity (MMP-9; patients with gastric and gastroesophageal junction adenocarcinoma): achieved target engagement without dose-limiting toxicity

- ALK specificity of the clone's monoclonal antibody (ALK [2]): high ALK specificity
- immunoprecipitation of ALK (full-length ALK receptor): can immunoprecipitate ALK
B2: 5H3: murine monoclonal IgG1 anti-ALK antibody; VH SEQ ID NO: 13, VL SEQ ID NO: 14 (antibody)
heavy: MEWSWVFLFLLSVIAGVQSQVQLQQSGAELVRPGASVTLSCKASGYTFTDYEMHWVKQTPVHGLEWIGAIDPETGGSAYNQKFKAKAILTADRSSSTAYMELRSLTSEDSAVYYCTRTRYYGSSPAMDYWGQGTSVTVSSAKTTPPSVYPLAPGSAAQTNSMVTLGCLVKGYFPEPVTVTWNSGSLSSGVHTFPAVLQSDLYTLSSSVTVPSS
light: MSSAQFLGLLLLCFQGTRCDIQMTQTTSSLSASLGDRVTISCSASQGIGNYLNWYQQKPDGTVKLLIYYTSSLHSGVPSRFSGSGSGTDYSLTISNLEPEDIATYYCQQYSKLPYTFGGGTKLEIKRADAAPTVSIFPPSSEQLTSGGASVVCFLNNFYPKDINVKWKIDGSERQNGVLNSWTDQDSKDSTYSMSSTLTLTK
- recognition of ALK in immunoblotting assays (ALK [1]): recognize ALK in immunoblotting assays
- ALK protein recognized by western blotting in cell lysates (ALK [3]; cell lysates of neuroblastoma cells expressing ALK): recognized a 220 kDa protein in the cell lysates of neuroblastoma cells
- ALK protein recognized by western blotting in media (ALK [3]; conditioned media of NB cells, shed ECD domain): an approximately 100 kDa protein in the media
- recognition of circulating ALK extracellular fragment in sera [4]: recognize the circulating ALK extracellular fragment in the sera of patients with ALK-expressing neuroblastoma
